Assays:
[1] = molecular target: Her2 (ErbB2) (UniProt P04626); assay: ligand binding assay ('Binding Activity'), format not described; lyophilized formula B6 after 25 C for 3 months
[2] = molecular target: Her2 (ErbB2) (UniProt P04626); assay: ligand binding assay ('Binding Activity'), format not described; lyophilized formula B2 after 25 C for 3 months
[3] = molecular target: Her2 (ErbB2) (UniProt P04626); assay: ligand binding assay ('Binding Activity'), format not described; lyophilized formula B6 after 37 C for 1 month
[4] = molecular target: Her2 (ErbB2) (UniProt P04626); assay: ligand binding assay ('Binding Activity'), format not described; lyophilized formula B4 after 25 C for 3 months
[5] = molecular target: Her2 (ErbB2) (UniProt P04626); assay: ligand binding assay ('Binding Activity'), format not described; lyophilized formula B2 after 4 C for 6 months
[6] = molecular target: Her2 (ErbB2) (UniProt P04626); assay: ligand binding assay ('Binding Activity'), format not described; lyophilized formula B6 after 4 C for 6 months
[7] = molecular target: Her2 (ErbB2) (UniProt P04626); assay: ligand binding assay ('Binding Activity'), format not described; lyophilized formula B4 after 37 C for 1 month
[8] = molecular target: Her2 (ErbB2) (UniProt P04626); assay: ligand binding assay ('Binding Activity'), format not described; lyophilized formula B4 after 4 C for 6 months
[9] = molecular target: Her2 (ErbB2) (UniProt P04626); assay: ligand binding assay ('Binding Activity'), format not described; lyophilized formula B2 after 37 C for 1 month

B1: recombinant humanized anti-Her2 monoclonal antibody-MMAE conjugate (RC48-vc-MMAE) (antibody, INN chains, looked up, V domains shown, not shown: a dimerising Fc or GST)
VH: EVQLVQSGAEVKKPGATVKISCKVSGYTFTDYYIHWVQQAPGKGLEWMGRVNPDHGDSYYNQKFKDKATITADKSTDTAYMELSSLRSEDTAVYFCARNYLFDHWGQGTLVTVSS
VL: DIQMTQSPSSVSASVGDRVTITCKASQDVGTAVAWYQQKPGKAPKLLIYWASIRHTGVPSRFSGSGSGTDFTLTISSLQPEDFATYYCHQFATYTFGGGTKVEIK
modifications: vedotin: mc-vc-PAB-MMAE payload
- IC50 [1]: 0.0129 nM
- IC50 [2]: 0.0133 nM
- IC50 [3]: 0.0148 nM
- IC50 [4]: 0.0127 nM
- IC50 [5]: 0.0132 nM
- IC50 [6]: 0.0133 nM
- IC50 [7]: 0.0126 nM
- IC50 [8]: 0.0122 nM
- IC50 [9]: 0.0152 nM

Reference: US20210154314A1
